According to patent publication US20240059785A1:

Tests used:
[1] = biological target: human CD37 (Homo sapiens CD37) (Homo sapiens) (UniProt P11049); assay: cell-based or functional assay
[2] = biological target: human CD20 (Homo sapiens CD20) (Homo sapiens) (UniProt P11836); assay: cell-based or functional assay
Sequence of human CD20 (Homo sapiens CD20) (Homo sapiens) (P11836 whole entry): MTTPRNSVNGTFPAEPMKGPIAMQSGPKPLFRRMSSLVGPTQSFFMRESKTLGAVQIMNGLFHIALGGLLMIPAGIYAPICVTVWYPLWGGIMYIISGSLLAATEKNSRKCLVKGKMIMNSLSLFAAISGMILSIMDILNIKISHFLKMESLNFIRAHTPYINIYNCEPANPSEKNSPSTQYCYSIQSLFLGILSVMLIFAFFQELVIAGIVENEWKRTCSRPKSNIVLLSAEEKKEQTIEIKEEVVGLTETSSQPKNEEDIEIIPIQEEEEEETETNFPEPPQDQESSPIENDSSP

Sequence of human CD37 (Homo sapiens CD37) (Homo sapiens) (P11049 whole entry): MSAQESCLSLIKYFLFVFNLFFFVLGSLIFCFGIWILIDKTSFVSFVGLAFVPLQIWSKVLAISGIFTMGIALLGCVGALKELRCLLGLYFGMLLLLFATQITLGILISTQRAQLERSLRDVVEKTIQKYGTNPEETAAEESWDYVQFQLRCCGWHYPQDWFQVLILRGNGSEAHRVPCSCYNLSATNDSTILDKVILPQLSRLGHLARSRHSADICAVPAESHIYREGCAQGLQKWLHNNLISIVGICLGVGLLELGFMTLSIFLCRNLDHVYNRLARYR

human IgG1 isotype control antibody (an anti-dinitrophenyl (anti-DNP) antibody)
ADCC reporter assay (FcγRIII-transfected Jurkat NFAT luciferase effector cells), Mean RLU, CD37/CHO target cells, Effector:Target 4:1 [1]: 20600 RLU
ADCC reporter assay (FcγRIII-transfected Jurkat NFAT luciferase effector cells), Mean RLU, CD37/CHO target cells, Effector:Target 8:1 [1]: 36200 RLU
ADCC reporter assay (FcγRIII-transfected Jurkat NFAT luciferase effector cells), Mean RLU, CD20/CHO target cells, Effector:Target 4:1 [2]: 20900 RLU
ADCC reporter assay (FcγRIII-transfected Jurkat NFAT luciferase effector cells), Mean RLU, CD20/CHO target cells, Effector:Target 8:1 [2]: 36000 RLU
ADCC reporter assay (FcγRIII-transfected Jurkat NFAT luciferase effector cells), Mean RLU, Raji target cells (express both hCD20 and hCD37), Effector:Target 4:1 [2]: 16600 RLU
ADCC reporter assay (FcγRIII-transfected Jurkat NFAT luciferase effector cells), Mean RLU, Raji target cells (express both hCD20 and hCD37), Effector:Target 8:1 [2]: 31500 RLU

rituximab (antibody)
ADCC reporter assay (FcγRIII-transfected Jurkat NFAT luciferase effector cells), Mean RLU, CD37/CHO target cells, Effector:Target 4:1 [1]: 20500 RLU
ADCC reporter assay (FcγRIII-transfected Jurkat NFAT luciferase effector cells), Mean RLU, CD37/CHO target cells, Effector:Target 8:1 [1]: 35900 RLU
